B1: HA-tagged JMJD3c (catalytic domain-containing C-terminus of JMJD3) (protein)
chain: QSEEIQGREKSRPDLGGASKAKPPTAPAPPSAPAPSAQPTPPSASVPGKKAREEAPGPPGVSRADMLKLRSLSEGPPKELKIRLIKVESGDKETFIASEVEERRLRMADLTISHCAADVVRASRNAKVKGKFRESYLSPAQSVKPKINTEEKLPREKLNPPTPSIYLESKRDAFSPVLLQFCTDPRNPITVIRGLAGSLRLNLGLFSTKTLVEASGEHTVEVRTQVQQPSDENWDLTGTRQIWPCESSRSHTTIAKYAQYQASSFQESLQEEKESEDEESEEPDSTTGTPPSSAPDPKNHHIIKFGTNIDLSDAKRWKPQLQELLKLPAFMRVTSTGNMLSHVGHTILGMNTVQLYMKVPGSRTPGHQENNNFCSVNINIGPGDCEWFAVHEHYWETISAFCDRHGVDYLTGSWWPILDDLYASNIPVYRFVQRPGDLVWINAGTVHWVQATGWCNNIAWNVGPLTAYQYQLALERYEWNEVKNVKSIVPMIHVSWNVARTVKISDPDLFKMIKFCLLQSMKHCQVQRESLVRAGKKIAYQGRVKDEPAYYCNECDVEVFNILFVTSENGSRNTYLVHCEGCARRRSAGLQGVVVLEQYRTEELAQAYDAFTLVRARRARGQRRRALGQAAGTGFGSPAAPFPEPPPAFSPQAPASTSR
B2: HA-tagged full-length JMJD3 (protein)
chain: MHRAVDPPGARAAREAFALGGLSCAGAWSSCPPHPPPRSAWLPGGRCSASIGQPPLPAPLPPSHGSSSGHPSKPYYAPGAPTPRPLHGKLESLHGCVQALLREPAQPGLWEQLGQLYESEHDSEEATRCYHSALRYGGSFAELGPRIGRLQQAQLWNFHTGSCQHRAKVLPPLEQVWNLLHLEHKRNYGAKRGGPPVKRAAEPPVVQPVPPAALSGPSGEEGLSPGGKRRRGCNSEQTGLPPGLPLPPPPLPPPPPPPPPPPPPLPGLATSPPFQLTKPGLWSTLHGDAWGPERKGSAPPERQEQRHSLPHPYPYPAPAYTAHPPGHRLVPAAPPGPGPRPPGAESHGCLPATRPPGSDLRESRVQRSRMDSSVSPAATTACVPYAPSRPPGLPGTTTSSSSSSSSNTGLRGVEPNPGIPGADHYQTPALEVSHHGRLGPSAHSSRKPFLGAPAATPHLSLPPGPSSPPPPPCPRLLRPPPPPAWLKGPACRAAREDGEILEELFFGTEGPPRPAPPPLPHREGFLGPPASRFSVGTQDSHTPPTPPTPTTSSSNSNSGSHSSSPAGPVSFPPPPYLARSIDPLPRPPSPAQNPQDPPLVPLTLALPPAPPSSCHQNTSGSFRRPESPRPRVSFPKTPEVGPGPPPGPLSKAPQPVPPGVGELPARGPRLFDFPPTPLEDQFEEPAEFKILPDGLANIMKMLDESIRKEEEQQQHEAGVAPQPPLKEPFASLQSPFPTDTAPTTTAPAVAVTTTTTTTTTTTATQEEEKKPPPALPPPPPLAKFPPPSQPQPPPPPPPSPASLLKSLASVLEGQKYCYRGTGAAVSTRPGPLPTTQYSPGPPSGATALPPTSAAPSAQGSPQPSASSSSQFSTSGGPWARERRAGEEPVPGPMTPTQPPPPLSLPPARSESEVLEEISRACETLVERVGRSATDPADPVDTAEPADSGTERLLPPAQAKEEAGGVAAVSGSCKRRQKEHQKEHRRHRRACKDSVGRRPREGRAKAKAKVPKEKSRRVLGNLDLQSEEIQGREKSRPDLGGASKAKPPTAPAPPSAPAPSAQPTPPSASVPGKKAREEAPGPPGVSRADMLKLRSLSEGPPKELKIRLIKVESGDKETFIASEVEERRLRMADLTISHCAADVVRASRNAKVKGKFRESYLSPAQSVKPKINTEEKLPREKLNPPTPSIYLESKRDAFSPVLLQFCTDPRNPITVIRGLAGSLRLNLGLFSTKTLVEASGEHTVEVRTQVQQPSDENWDLTGTRQIWPCESSRSHTTIAKYAQYQASSFQESLQEEKESEDEESEEPDSTTGTPPSSAPDPKNHHIIKFGTNIDLSDAKRWKPQLQELLKLPAFMRVTSTGNMLSHVGHTILGMNTVQLYMKVPGSRTPGHQENNNFCSVNINIGPGDCEWFAVHEHYWETISAFCDRHGVDYLTGSWWPILDDLYASNIPVYRFVQRPGDLVWINAGTVHWVQATGWCNNIAWNVGPLTAYQYQLALERYEWNEVKNVKSIVPMIHVSWNVARTVKISDPDLFKMIKFCLLQSMKHCQVQRESLVRAGKKIAYQGRVKDEPAYYCNECDVEVFNILFVTSENGSRNTYLVHCEGCARRRSAGLQGVVVLEQYRTEELAQAYDAFTLVRARRARGQRRRALGQAAGTGFGSPAAPFPEPPPAFSPQAPASTSR

Target: Histone H3 trimethylated at lysine 27 (H3K27me3), nucleosomal, in human ES cells

Protein	H3K27me3 level after doxycycline-induced expression in JMJD3c-hESCs	H3K27me3 level by immunostaining and immunoblotting, 8 hours after introduction of synthetic mRNA into hESCs
B1	Dox treatment (1 µg/ml) induced HA-JMJD3c expression and a significant decrease in H3K27me3 in all hESCs	the introduction of the JMJD3c mRNA induced a more significant decrease in H3K27me3 as compared to the JMJD3f mRNA
B2	–	the introduction of the JMJD3c mRNA induced a more significant decrease in H3K27me3 as compared to the JMJD3f mRNA

Reference: patent US20200048612
